The labels stand for the following.
B1: Acidithiobacillus ferrooxidans form I rubisco large subunit (natural protein, UniProt B7JA24 1-473, looked up)
chain: MAVKTYNAGVKDYRNTYWEPDYSVKDTDILAVFKITPQAGVDREEAAAAVAAESSTGTWTTVWTDLLTDLDYYKGRAYRIEDVPGDDTCFYAFIAYPIDLFEEGSVVNVFTSLVGNVFGFKAVRALRLEDVRFPIAYVKTCGGPPHGIQVERDIMNKYGRPLLGCTIKPKLGLSAKNYGRACYEGLRGGLDFTKDDENVNSQPFMRWRQRFDFVMEAIQKAEAETGERKGHYLNVTAPTPEEMYKRAEYAKEIGAPIIMHDYITGGFCANTGLANWCRDNGMLLHIHRAMHAVLDRNPHHGIHFRVLTKILRLSGGDHLHSGTVVGKLEGDREATLGWIDIMRDRFIKEDRSRGIFFDQDWGSMPGVMPVASGGIHVWHMPALVTIFGDDSVLQFGGGTLGHPWGNAAGAAANRVALEACVEARNRGVAIEKEGKAVLTEAAKHSPELKIAMETWKEIKFEFDTVDKLDVAHK
notes: form I rubisco large subunit (CbbL) of Acidithiobacillus ferrooxidans ATCC 23270, locus AFE_3051; gene amplified from genomic DNA; cbbL and cbbS were amplified together and cloned between NdeI and HindIII of pET30b; no tag is mentioned; also called AfL; CbbL; source: E. coli BL21, co-expressed with the small subunit from pET30bAfcbbLS, purified (Source30Q, Superdex 200)
B2: Rhodobacter sphaeroides form I rubisco small subunit (natural protein, UniProt P27998 1-129, looked up)
chain: MRITQGCFSFLPDLTDEQISAQVDYCLGRGWAVSLEHTDDPHPRNTYWEMWGMPMFDLRDPKGVMIELDECRKAWPGRYIRINAFDSTRGFETVTMSFIVNRPEVEPSLRMERTEVDGRSIRYTHSIVR
notes: form I rubisco small subunit of Rhodobacter sphaeroides; also called small subunit of RsLS
B3: Rhodopseudomonas palustris form II rubisco (enzyme, UniProt Q6N0W9 1-461, looked up)
chain: MDQSNRYANLNLKESELIAGGRHVLCAYIMKPKAGFGNFIQTAAHFAAESSTGTNVEVSTTDDFTRGVDALVYEVDEANSLMKIAYPIELFDRNVIDGRAMIASFLTLTIGNNQGMGDVEYAKMYDFYVPPAYLKLFDGPSTTIKDLWRVLGRPVINGGFIVGTIIKPKLGLRPQPFANACYDFWLGGDFIKNDEPQGNQVFAPFKDTVRAVADAMRRAQDKTGEAKLFSFNITADDHYEMLARGEFILETFADNADHIAFLVDGYVAGPAAVTTARRAFPKQYLHYHRAGHGAVTSPQSKRGYTAFVLSKMARLQGASGIHTGTMGFGKMEGEAADRAIAYMITEDAADGPYFHQEWLGMNPTTPIISGGMNALRMPGFFDNLGHSNLIMTAGGGAFGHVDGGAAGAKSLRQAEQCWKQGADPVEFAKDHREFARAFESFPQDADKLYPNWRAKLKPQAA
notes: form II rubisco (CbbM) of Rhodopseudomonas palustris; gene synthesized by Genscript, cloned in pHue; also called RpM; source: E. coli BL21 (DE3), purified (Ni-NTA, ubiquitin cleaved, Mono Q, Superdex 200); not shown: His6, N-terminal, cleaved; ubiquitin, N-terminal, cleaved
B4: Acidithiobacillus ferrooxidans CbbO2 (natural protein, UniProt B7J5E5 1-759, looked up)
chain: MTDHPRDASLPSRLAAYRKQLDCRFPRVGEVFSDCIAKASARLGPAGVSAYVDAARALCKLGRGEEPVLIFLEEWPDVGAALGDGTLEMVMQMVQFMQRTPNGNAIGGFLQSLAPVSRALLSREQLGHYLNTLRDMMERTTGSIHGHHQTHPSPGLPELLRQAPTLLQSLTVDGLRNWVDYGVRNYLHHPERQKDFFSLQSADSRAVLQRERHGTLLADVERKLDLYLRGLWQDSEVLVPYSTAFATLRTPQPYYDALGMRLPDVLDDLPGIGALDHYRAILAHMVGHRRWSTPQIADNWSPFQRLAVEFFEDARIDTLLIRTYPGLRTLFLALHPKPGEDACDPETTSCLRHRLAMLSRALLDPEHGYRNPVLHDFVDRFHGELAGGNADTATMARLALDYVTTTRRQSDQFAKVHFADTEISYRDDNRGLWRFIESGDEEEAFDAEQRKAPDLETQGLPPRHYPEWDYQSQSYRPDWVSLYEGLHASAPAATIDQLLLKHAALAKHLKRLLDLLKPQDKVRIRYQEEGSELDLDVALRSWIDFKSGSTPDPRINMSHRTAGRDIAVTLLLDLSESLNESVKTGGGDGQTVLQLSQEAVSLLAWSIEQLGDPLAIAGFNSNTRHEVRYQHIKGFSEPWGDVVKGRLAALQAGYSTRMGAAMRHAGHYLATRKADKKLMLVLTDGRPSDVDVQDDRLLIEDARQAVNELDRDGIFTYCISLDPHADAYVADIFGRQYTVIDHIARLPEKLPELFIALTR
notes: VWA-domain protein CbbO2 of Acidithiobacillus ferrooxidans ATCC 23270, locus AFE_2157; insoluble unless co-expressed with CbbQ2; also called AfCbbO2; source: E. coli, co-expressed with CbbQ2, co-purified (Ni-NTA, ubiquitin cleaved, MonoQ, Superdex 200; 5 mM MgCl2 and 5% glycerol in buffers); not shown: His6, N-terminal, cleaved; ubiquitin, N-terminal, cleaved
B5: Acidithiobacillus ferrooxidans CbbQ1 (natural protein, UniProt B7JA26 1-267, looked up)
chain: MNDQLTEYRIKKAPYYRATGDETELYEAAYSVRMPMMLKGPTGCGKTRFVEYMAYKLGKPLITVACNEDMTASDLVGRFLLDPQGTRWQDGPLTLAARLGAICYLDEVVEARQDTTVVIHPLTDNRRVLPLEKKGELVQAHPDFQLVISYNPGYQSLMKDLKQSTKQRFGALDFNYPDHEIEAEIVSHETGVNKEVADKLVSIAERARNLKGHGLDEGISTRMLVYAGSLINKGVEAKAACRVTLVRPITDDPDMRDALDAAVTTYF
notes: MoxR-type AAA+ protein CbbQ1 of Acidithiobacillus ferrooxidans ATCC 23270, locus AFE_3053; native N terminus after cleavage of His6-ubiquitin; six copies in the Q1O1 complex; alone it eluted in the void volume (likely soluble aggregates); also called AfQ1; AfCbbQ1; source: E. coli, co-expressed with CbbO1, co-purified (Ni-NTA, ubiquitin cleaved, MonoQ, Superdex 200); not shown: His6, N-terminal, …
B6: Rhodobacter sphaeroides form I rubisco large subunit (natural protein, UniProt P27997 1-486, looked up)
chain: MDTKTTEIKGKERYKAGVLKYAQMGYWDGDYVPKDTDVLALFRITPQEGVDPVEAAAAVAGESSTATWTVVWTDRLTACDSYRAKAYRVEPVPGTPGQYFCYVAYDLILFEEGSIANLTASIIGNVFSFKPLKAARLEDMRFPVAYVKTYKGPPTGIVGERERLDKFGKPLLGATTKPKLGLSGKNYGRVVYEGLKGGLDFMKDDENINSQPFMHWRDRFLYVMEAVNLASAQTGEVKGHYLNITAGTMEEMYRRAEFAKSLGSVIVMVDLIIGYTAIQSISEWCRQNDMILHMHRAGHGTYTRQKNHGISFRVIAKWLRLAGVDHLHCGTAVGKLEGDPLTVQGYYNVCREPFNTVDLPRGIFFEQDWADLRKVMPVASGGIHAGQMHQLLSLFGDDVVLQFGGGTIGHPMGIQAGATANRVALEAMVLARNEGRNIDVEGPEILRAAAKWCKPLEAALDTWGNITFNYTSTDTSDFVPTASVAM
notes: form I rubisco large subunit of Rhodobacter sphaeroides; also called large subunit of RsLS
B7: Acidithiobacillus ferrooxidans form II rubisco (enzyme, UniProt B7J5E3 1-459, looked up)
chain: MDQSNRYADLSLKEEDLISGGKHILVAYKMKPKAGHGYLEAAAHFAAESSTGTNVEVSTTDDFTKGVDALVYHIDEATEDMRIAFPLELFDRNVTDGRMMIVSFLTLVIGNNQGMGDIEHGQMIDFFMPPRAIQLFDGPAKDISDLWRILGRPIKDGGYIAGTIIKPKLGLRPEPFAAAAYQFWLGGDFIKNDEPQGNQVFAPVKKTIPLVYDAMKRAMDETGEAKLFSMNITADDHYEMCARADFALETFGPDADKLAFLVDGFVGGPGMITTARRQYAGQYLHYHRAGHGMITSPSAKRGYTAFVLAKMSRLQGASGIHVGTMGYGKMEGGADDRNIAYMIERDSCDGPVYHQEWYGMKPTTPIISGGMNALRLPGFFENLGHGNVINTAGGGSYGHIDSPAAGAVSLRQAYECWKAGADPIEYAREHKEFARAFESFPGDADKLYPGWREKLGVHR
notes: form II rubisco (CbbM) of Acidithiobacillus ferrooxidans ATCC 23270, locus AFE_2155; native N terminus after cleavage of His6-ubiquitin; used as ECM, ER and ECMC complexes in the enzymatic assays; also called AfM; CbbM; source: E. coli BL21 (DE3), purified (Ni-NTA, ubiquitin cleaved, Mono Q, Superdex 200); not shown: His6, N-terminal, cleaved; ubiquitin, N-terminal, cleaved
B8: Acidithiobacillus ferrooxidans CbbO1 (natural protein, UniProt B7JA27 1-772, looked up)
chain: MKHLEDYAELLQAFGEGSQAILQSKWQEATRVFSPSGLDQYLDGAMGLRSLGKGDGLVSSYLDAAPHIAREVGEDAVWELVGAVMKMASKTSGAVLEAVVSTSPTAANRLADPELFKSYLGMLDRLLAQVPRALRPMLENIDQLFGYLTLGGLRRWALWGAHAHRTDFEAQIAYFSLKSPEALAMLQQERKGTLFVDIQRRLRMYLRALWGRDFFLRPTSGDFEDREGYRPYIEGIFIHLPDAYDDWEDIDGMTRYRAVAVHAAAHVAYMRKAISAEALTPEQMAVIGLFEDARVEALAMRAFPGIRAIWLPFHTAVAGPVASMGHLFSRLARAIIDPDYVDDNAWVQEGRRVFMEAEARWDDPQLSWDLGVHLADRLRNQRVSYHARTDIPDILYRDDNRYIWEFEEIDWEHETTILPGAQVRKYVNVMEMVNEVDTELAGDDAQEVWVLQSELFPYEDMGLSYNQMEGKEPVSDPFHYPEWDYQIQASRPLWATVLERRPRLGDARVVREVLEKYKPVSSRLRYLIEALQPQGVQRLRKQEDGDEIDVEAAVRALVDIRMGLAPDTRIHMRSLRKVRDLGVLVLMDLSESTNDKVRGSEDSILQLTRDATSLLADAMNRIGDPFAIHGFHSDGRHDVAYYRFKDFDEAYSEEAMGRIAGMTGKFSTRMGAALRHAGHHLRHQRQSRKLLLVITDGEPADIDVRDPQYLRHDARRAVEDLGRDGVITYCLSLDPHADEYVSRIFGARNYQVIDHVERLPERLPILYAGLTR
notes: VWA-domain protein CbbO1 of Acidithiobacillus ferrooxidans ATCC 23270, locus AFE_3054; insoluble unless co-expressed with CbbQ1; also called AfCbbO1; source: E. coli, co-expressed with CbbQ1, co-purified (Ni-NTA, ubiquitin cleaved, MonoQ, Superdex 200); not shown: His6, N-terminal, cleaved; ubiquitin, N-terminal, cleaved
B9: Acidithiobacillus ferrooxidans CbbQ2 (natural protein, UniProt B7J5E4 1-272, looked up)
chain: MTATDSSILNQYLVGKEPFYQPQHDEVALFEAAYRKRLPVMVKGPTGCGKSRFVEFMAWRLGKPLVTVACNEDMTAADLVGRWLLDKDGTRWQDGPLTVAARYGAICYLDEIVEARQDTTVVIHPLTDHRRTLPLDKKGELIRAHPDFQLVISYNPGYQSLMKDLKQSTKQRFTGFEFDYPNAELEAGILVQETGVAPSIAAQLVTVAATARRLKGHGLDEGISTRLLVYAAMLMDDGVAPRAACRMALVQPITDDADIRATLEHAIDMTFA
notes: MoxR-type AAA+ protein CbbQ2 of Acidithiobacillus ferrooxidans ATCC 23270, locus AFE_2156; native N terminus after cleavage of His6-ubiquitin; also called AfQ2; AfCbbQ2; not shown: His6, N-terminal, cleaved; ubiquitin, N-terminal, cleaved

Series [1] concerns the molecule itself. Briefly: SEC + other: glycerol gradient sedimentation; combined Stokes radius/sedimentation analysis: Stokes radius from gel filtration, Svedberg coefficient from 5–30% glycerol gradients in buffer A (1 mg/ml, 35,000 r.p.m., 16 h, 4 °C); M=4,205 (SRs). In general terms: Size exclusion chromatography separates by hydrodynamic size, large species first.
Series [2] has as its target B6. Described as above. The following applies: both partners purified.
In series [3] the target is B9. Briefly: quantitative densitometry of SDS-PAGE; Coomassie-stained SDS–PAGE of the purified complexes (4 µg per lane), assuming equal binding of the dye. The following applies: both partners purified.
Series [4] concerns the target B9. Briefly: SEC + other: glycerol gradient sedimentation; combined Stokes radius/sedimentation analysis: Stokes radius from gel filtration, Svedberg coefficient from 5–30% glycerol gradients in buffer A (1 mg/ml, 35,000 r.p.m., 16 h, 4 °C); M=4,205 (SRs). The following applies: both partners purified.
In series [5] the target is B5. The series can be described thus: quantitative densitometry of SDS-PAGE; Coomassie-stained SDS–PAGE of the purified complexes (4 µg per lane), assuming equal binding of the dye. Conditions: both partners purified.
The target of series [6] is B5. Briefly: SEC + other: glycerol gradient sedimentation; combined Stokes radius/sedimentation analysis: Stokes radius from gel filtration, Svedberg coefficient from 5–30% glycerol gradients in buffer A (1 mg/ml, 35,000 r.p.m., 16 h, 4 °C); M=4,205 (SRs). Conditions: both partners purified.

The results in this text go back to publication PMC4660213, “Identification and characterization of multiple rubisco activases in chemoautotrophic bacteria” (Nature Communications, 2015).

In general, stoichiometry N refers to a count of units in the complex or per binding partner.

For the molecule B1, the “stoichiometry N” value in series [1] is 8 large subunits in the complex.

On to B2, for which the binding result in series [2] was “binds”.

As for B3, the “stoichiometry N” value in series [1] was determined as 6 subunits in the oligomer.

For B4, the “stoichiometry N” value was 1 CbbO subunit per 6 CbbQ subunits in series [3] and 1 CbbO subunit per CbbQ hexamer in series [4].

B5: in series [1], the “stoichiometry N” value is 6 CbbQ subunits in the complex.

In the case of B6, in series [1], the “stoichiometry N” value was 8 large subunits in the complex.

Consider B7, for which the “stoichiometry N” value in series [1] was determined as 6 subunits in the oligomer.

As for B8, the “stoichiometry N” value in series [5] is 1 CbbO subunit per 6 CbbQ subunits; in series [6], 1 CbbO subunit per CbbQ hexamer.

Consider B9, for which the “stoichiometry N” value in series [1] came to 6 subunits in the oligomer.
